B1: EGFP–ARS2 wt [human] / RBM7 [human (endogenous in HEK 293T/17)] (parent complex)
chain 1: MGDSDDEYDRRRRDKFRRERSDYDRSRERDERRRGDDWNDREWDRGRERRSRGEYRDYDRNRRERFSPPRHELSPPQKRMRRDWDEHSSDPYHSGYEMPYAGGGGGPTYGPPQPWGHPDVHIMQHHVLPIQARLGSIAEIDLGVPPPVMKTFKEFLLSLDDSVDETEAVKRYNDYKLDFRRQQMQDFFLAHKDEEWFRSKYHPDEVGKRRQEARGALQNRLRVFLSLMETGWFDNLLLDIDKADAIVKMLDAAVIKMEGGTENDLRILEQEEEEEQAGKPGEPSKKEEGRAGAGLGDGERKTNDKDEKKEDGKQAENDSSNDDKTKKSEGDGDKEEKKEDSEKEAKKSSKKRNRKHSGDDSFDEGSVSESESESESGQAEEEKEEAEALKEKEKPKEEEWEKPKDAAGLECKPRPLHKTCSLFMRNIAPNISRAEIISLCKRYPGFMRVALSEPQPERRFFRRGWVTFDRSVNIKEICWNLQNIRLRECELSPGVNRDLTRRVRNINGITQHKQIVRNDIKLAAKLIHTLDDRTQLWASEPGTPPLPTSLPSQNPILKNITDYLIEEVSAEEEELLGSSGGAPPEEPPKEGNPAEINVERDEKLIKVLDKLLLYLRIVHSLDYYNTCEYPNEDEMPNRCGIIHVRGPMPPNRISHGEVLEWQKTFEEKLTPLLSVRESLSEEEAQKMGRKDPEQEVEKFVTSNTQELGKDKWLCPLSGKKFKGPEFVRKHIFNKHAEKIEEVKKEVAFFNNFLTDAKRPALPEIKPAQPPGPAQSLTPGLPYPHQTPQGLMPYGQPRPPILGYGAGAVRPAVPTGGPPYPHAPYGAGRGNYDAFRGQGGYPGKPRNRMVRGDPRAIVEYRDLDAPDDVDFF
chain 2: MGAAAAEADRTLFVGNLETKVTEELLFELFHQAGPVIKVKIPKDKDGKPKQFAFVNFKHEVSVPYAMNLLNGIKLYGRPIKIQFRSGSSHAPQDVSLSYPQHHVGNSSPTSTSPSRYERTMDNMTSSAQIIQRSFSSPENFQRQAVMNSALRQMSYGGKFGSSPLDQSGFSPSVQSHSHSFNQSSSSQWRQGTPSSQRKVRMNSYPYLADRHYSREQRYTDHGSDHHYRGKRDDFFYEDRNHDDWSHDYDNRRDSSRDGKWRSSRH
B2: EGFP–ARS2 wt [human] / ZFC3H1 [human (endogenous in HEK 293T/17)] (parent complex)
chain 1: B1 chain 1
chain 2: MATADTPAPASSGLSPKEEGELEDGEISDDDNNSQIRSRSSSSSSGGGLLPYPRRRPPHSARGGGSGGGGGSSSSSSSSQQQLRNFSRSRHASERGHLRGPSSYRPKEPFRSHPPSVRMPSSSLSESSPRPSFWERSHLALDRFRFRGRPYRGGSRWSRGRGVGERGGKPGCRPPLGGGAGSGFSSSQSWREPSPPRKSSKSFGRSPSRKQNYSSKNENCVEETFEDLLLKYKQIQLELECINKDEKLALSSKEENVQEDPKTLNFEDQTSTDNVSITKDSSKEVAPEEKTQVKTFQAFELKPLRQKLTLPGDKNRLKKVKDGAKPLSLKSDTTDSSQGLQDKEQNLTRRISTSDILSEKKLGEDEEELSELQLRLLALQSASKKWQQKEQQVMKESKEKLTKTKTVQQKVKTSTKTHSAKKVSTTAKQALRKQQTKAWKKLQQQKEQERQKEEDQRKQAEEEERRKREEEIRKIRDLSNQEEQYNRFMKLVGGKRRSRSKSSDPDLRRSLDKQPTDSGGGIYQYDNYEEVAMDTDSETSSPAPSPVQPPFFSECSLGYFSPAPSLSLPPPPQVSSLPPLSQPYVEGLCVSLEPLPPLPPLPPLPPEDPEQPPKPPFADEEEEEEMLLREELLKSLANKRAFKPEETSSNSDPPSPPVLNNSHPVPRSNLSIVSINTVSQPRIQNPKFHRGPRLPRTVISLPKHKSVVVTLNDSDDSESDGEASKSTNSVFGGLESMIKEARRTAEQASKPKVPPKSEKENDPLRTPEALPEEKKIEYRLLKEEIANREKQRLIKSDQLKTSSSSPANSDVEIDGIGRIAMVTKQVTDAESKLKKHRILLMKDESVLKNLVQQEAKKKESVRNAEAKITKLTEQLQATEKILNVNRMFLKKLQEQIHRVQQRVTIKKALTLKYGEELARAKAVASKEIGKRKLEQDRFGPNKMMRLDSSPVSSPRKHSAELIAMEKRRLQKLEYEYALKIQKLKEARALKAKEQQNISPVVEEEPEFSLPQPSLHDLTQDKLTLDTEENDVDDEILSGSSRERRRSFLESNYFTKPNLKHTDTANKECINKLNKNTVEKPELFLGLKIGELQKLYSKADSLKQLILKTTTGITEKVLHGQEISVDVDFVTAQSKTMEVKPCPFRPYHSPLLVFKSYRFSPYYRTKEKLPLSSVSYSNMIEPDQCFCRFDLTGTCNDDDCQWQHIQDYTLSRKQLFQDILSYNLSLIGCAETSTNEEITASAEKYVEKLFGVNKDRMSMDQMAVLLVSNINESKGHTPPFTTYKDKRKWKPKFWRKPISDNSFSSDEEQSTGPIKYAFQPENQINVPALDTVVTPDDVRYFTNETDDIANLEASVLENPSHVQLWLKLAYKYLNQNEGECSESLDSALNVLARALENNKDNPEIWCHYLRLFSKRGTKDEVQEMCETAVEYAPDYQSFWTFLHLESTFEEKDYVCERMLEFLMGAAKQETSNILSFQLLEALLFRVQLHIFTGRCQSALAILQNALKSANDGIVAEYLKTSDRCLAWLAYIHLIEFNILPSKFYDPSNDNPSRIVNTESFVMPWQAVQDVKTNPDMLLAVFEDAVKACTDESLAVEERIEACLPLYTNMIALHQLLERYEAAMELCKSLLESCPINCQLLEALVALYLQTNQHDKARAVWLTAFEKNPQNAEVFYHMCKFFILQNRGDNLLPFLRKFIASFFKPGFEKYNNLDLFRYLLNIPGPIDIPSRLCKGNFDDDMFNHQVPYLWLIYCLCHPLQSSIKETVEAYEAALGVAMRCDIVQKIWMDYLVFANNRAAGSRNKVQEFKFFTDLVNRCLVTVPARYPIPFSSADYWSNYEFHNRVIFFYLSCVPKTQHSKTLERFCSVMPANSGLALRLLQHEWEESNVQILKLQAKMFTYNIPTCLATWKIAIAAEIVLKGQREVHRLYQRALQKLPLCASLWKDQLLFEASEGGKTDNLRKLVSKCQEIGVSLNELLNLNSNKTESKNH
B3: EGFP–ARS2 wt [human] / NCBP3 (endogenous) [human (endogenous in HEK 293T/17)] (parent complex)
chain 1: B1 chain 1
chain 2: MAAVRGLRVSVKAEAPAGPALGLPSPEAESGVDRGEPEPMEVEEGELEIVPVRRSLKELIPDTSRRYENKAGSFITGIDVTSKEAIEKKEQRAKRFHFRSEVNLAQRNVALDRDMMKKAIPKVRLETIYICGVDEMSTQDVFSYFKEYPPAHIEWLDDTSCNVVWLDEMTATRALINMSSLPAQDKIRSRDASEDKSAEKRKKDKQEDSSDDDEAEEGEVEDENSSDVELDTLSQVEEESLLRNDLRPANKLAKGNRLFMRFATKDDKKELGAARRSQYYMKYGNPNYGGMKGILSNSWKRRYHSRRIQRDVIKKRALIGDDVGLTSYKHRHSGLVNVPEEPIEEEEEEEEEEEEEEEEDQDMDADDRVVVEYHEELPALKQPRERSASRRSSASSSDSDEMDYDLELKMISTPSPKKSMKMTMYADEVESQLKNIRNSMRADSVSSSNIKNRIGNKLPPEKFADVRHLLDEKRQHSRPRPPVSSTKSDIRQRLGKRPHSPEKAFSSNPVVRREPSSDVHSRLGVPRQDSKGLYADTREKKSGNLWTRLGSAPKTKEKNTKKVDHRAPGAEEDDSELQRAWGALIKEKEQSRQKKSRLDNLPSLQIEVSRESSSGSEAES
B4: EGFP–ARS2 wt [human] / hMTR4 [human (endogenous in HEK 293T/17)] (parent complex)
chain 1: B1 chain 1
chain 2: MADAFGDELFSVFEGDSTTAAGTKKDKEKDKGKWKGPPGSADKAGKRFDGKLQSESTNNGKNKRDVDFEGTDEPIFGKKPRIEESITEDLSLADLMPRVKVQSVETVEGCTHEVALPAEEDYLPLKPRVGKAAKEYPFILDAFQREAIQCVDNNQSVLVSAHTSAGKTVCAEYAIALALREKQRVIFTSPIKALSNQKYREMYEEFQDVGLMTGDVTINPTASCLVMTTEILRSMLYRGSEVMREVAWVIFDEIHYMRDSERGVVWEETIILLPDNVHYVFLSATIPNARQFAEWICHLHKQPCHVIYTDYRPTPLQHYIFPAGGDGLHLVVDENGDFREDNFNTAMQVLRDAGDLAKGDQKGRKGGTKGPSNVFKIVKMIMERNFQPVIIFSFSKKDCEAYALQMTKLDFNTDEEKKMVEEVFSNAIDCLSDEDKKLPQVEHVLPLLKRGIGIHHGGLLPILKETIEILFSEGLIKALFATETFAMGINMPARTVLFTNARKFDGKDFRWISSGEYIQMSGRAGRRGMDDRGIVILMVDEKMSPTIGKQLLKGSADPLNSAFHLTYNMVLNLLRVEEINPEYMLEKSFYQFQHYRAIPGVVEKVKNSEEQYNKIVIPNEESVVIYYKIRQQLAKLGKEIEEYIHKPKYCLPFLQPGRLVKVKNEGDDFGWGVVVNFSKKSNVKPNSGELDPLYVVEVLLRCSKESLKNSATEAAKPAKPDEKGEMQVVPVLVHLLSAISSVRLYIPKDLRPVDNRQSVLKSIQEVQKRFPDGIPLLDPIDDMGIQDQGLKKVIQKVEAFEHRMYSHPLHNDPNLETVYTLCEKKAQIAIDIKSAKRELKKARTVLQMDELKCRKRVLRRLGFATSSDVIEMKGRVACEISSADELLLTEMMFNGLFNDLSAEQATALLSCFVFQENSSEMPKLTEQLAGPLRQMQECAKRIAKVSAEAKLEIDEETYLSSFKPHLMDVVYTWATGATFAHICKMTDVFEGSIIRCMRRLEELLRQMCQAAKAIGNTELENKFAEGITKIKRDIVFAASLYL
B5: EGFP–ARS2 wt [human] / ZCCHC8 [human (endogenous in HEK 293T/17)] (parent complex)
chain 1: B1 chain 1
chain 2: MAAEVYFGDLELFEPFDHPEESIPKPVHTRFKDDDGDEEDENGVGDAELRERLRQCEETIEQLRAENQELKRKLNILTRPSGILVNDTKLDGPILQILFMNNAISKQYHQEIEEFVSNLVKRFEEQQKNDVEKTSFNLLPQPSSIVLEEDHKVEESCAIKNNKEAFSVVGSVLYFTNFCLDKLGQPLLNENPQLSEGWEIPKYHQVFSHIVSLEGQEIQVKAKRPKPHCFNCGSEEHQMKDCPMPRNAARISEKRKEYMDACGEANNQNFQQRYHAEEVEERFGRFKPGVISEELQDALGVTDKSLPPFIYRMRQLGYPPGWLKEAELENSGLALYDGKDGTDGETEVGEIQQNKSVTYDLSKLVNYPGFNISTPRGIPDEWRIFGSIPMQACQQKDVFANYLTSNFQAPGVKSGNKRSSSHSSPGSPKKQKNESNSAGSPADMELDSDMEVPHGSQSSESFQFQPPLPPDTPPLPRGTPPPVFTPPLPKGTPPLTPSDSPQTRTASGAVDEDALTLEELEEQQRRIWAALEQAESVNSDSDVPVDTPLTGNSVASSPCPNELDLPVPEGKTSEKQTLDEPEVPEIFTKKSEAGHASSPDSEVTSLCQKEKAELAPVNTEGALLDNGSVVPNCDISNGGSQKLFPADTSPSTATKIHSPIPDMSKFATGITPFEFENMAESTGMYLRIRSLLKNSPRNQQKNKKASE

Variants of: B1
Assay: EGFP pull down, LC–MS/MS (AP–MS, TMT labelled); HEK 293T/17 cells; three independent affinity purifications per bait; read off a plot

Row | screen value | Variant
1 | ~-1.8 | chain 1 K719A, chain 1 K722A, chain 1 K734A

Variants of: B2
Assay: as above

Row | screen value | Variant
2 | ~-2.8 | chain 1 K719A, chain 1 K722A, chain 1 K734A

Variants of: B3
Assay: as above

Row | screen value | Variant
3 | ~-3.1 | chain 1 K719A, chain 1 K722A, chain 1 K734A

Variants of: B4
Assay: as above

Row | screen value | Variant
4 | ~-2.7 | chain 1 K719A, chain 1 K722A, chain 1 K734A

Variants of: B5
Assay: as above

Row | screen value | Variant
5 | ~-1.7 | chain 1 K719A, chain 1 K722A, chain 1 K734A

Reference: article PMC5923425, “Structural analysis of human ARS2 as a platform for co-transcriptional RNA sorting” (Nature Communications, 2018)
